Reference: patent US20240317834A1, “COMPOSITIONS AND METHODS FOR NEUROLOGICAL DISEASES” (CODA BIOTHERAPEUTICS, INC., priority 2020, published 2024)
Positions count from the first letter of the chain named. Names and notes keep the numbering of the source.

Tested on: Lenti-X 293T cells
Assay: YFP fluorescence quenching anion reporter plate reader assay of engineered receptors stimulated with acetylcholine or a non-native ligand
Type: cell-based
Details: for percent quench of YFP fluorescence, 30 nM TC-6683: TC-6683 30 nM; for percent quench of YFP fluorescence, 300 nM TC-6683: TC-6683 300 nM; for percent quench of YFP fluorescence, 3 uM TC-6683: TC-6683 3 uM; for percent quench of YFP fluorescence, 30 uM TC-6683: TC-6683 30 uM; for percent quench of YFP fluorescence, 100 uM TC-6683: TC-6683 100 uM; for percent quench of YFP fluorescence, 10 uM ach: acetylcholine 10 uM; for percent quench of YFP fluorescence, 100 uM ach: acetylcholine 100 uM; for percent quench of YFP fluorescence, 1 mM ach: acetylcholine 1 mM; for percent quench of YFP fluorescence, 3 mM ach: acetylcholine 3 mM
In short: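 Lenti-X 293T cells carrying a YFP anion reporter were transiently transfected with channel DNA and assayed the next day in HEPES-buffered ECS at pH 7.2. Ligand (acetylcholine or non-native ligand) was added in NaI-substituted ECS. Percent quench was the mean of the last 10 s relative to the 15 s pre-addition baseline.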

B1: CODA335: engineered chimeric LGIC receptor, L131T in SEQ ID NO: 33 (protein)
chain: MRCSPGGVWLALAASLLHVSLQGEFQRKLYKELVKNYNPLERPVANDSQPLTVYFSLSLLQIMDVDEKNQVLTTNIWLQMSWTDHYLQWNVSEYPGVKTVRFPDGQIWKPDILLYNSADERFDATFHTNVTVNSSGHCQYLPPGIFKSSCPMDLKNFPMDVQTCKLKFGSWSYGGWSLDLQMQEADISGYIPNGEWDLVGIPGKRSERFYECCKEPYPDVTFTVTMRRRMGYYLIQMYIPSLLIVILSWISFWINMDAAPARVGLGITTVLTMTTQSSGSRASLPKVSYVKAIDIWMAVCLLFVFSALLEYAAVNFVSRQHKELLRFRRKRRHHKSPMLNLFQEDEAGEGRFNFSAYGMGPACLQAKDGISVKGANNSNTTNPPPAPSKSPEEMRKLFIQRAKKIDKISRIGFPMAFLIFNMFYWIIYKIVRREDVHNQ
modifications: synthetic sequence of chimeric LGIC
- YFP fluorescence quenching using CNL001 (1 nM CNL001, first column): −9.942%
- YFP fluorescence quenching using CNL001 (1 nM CNL001, second column): −0.475%
- YFP fluorescence quenching using TC-5619/Bradanicline (1 nM brd): −2.39%
- YFP fluorescence quenching using TC-5619/Bradanicline (3 nM brd): −4.08%
- YFP fluorescence quenching using Varenicline (3 nM var, first column): 0.398
- YFP fluorescence quenching using Varenicline (3 nM var, second column): 3.947
- YFP fluorescence quenching using CNL001 (10 nM CNL001, first column): 17.889%
- YFP fluorescence quenching using CNL001 (10 nM CNL001, second column): 38.46%
- YFP fluorescence quenching using TC-5619/Bradanicline (10 nM brd): −3.3%
- YFP fluorescence quenching using TC-5619/Bradanicline (30 nM brd): −9.69%
- YFP fluorescence quenching using Facinicline (30 nM fac): 1.24
- YFP fluorescence quenching using Varenicline (30 nM var, first column): 5.31
- YFP fluorescence quenching using Varenicline (30 nM var, second column): 7.666
- YFP fluorescence quenching using CNL001 (50 nM CNL001, first column): 61.741%
- YFP fluorescence quenching using CNL001 (50 nM CNL001, second column): 69.159%
- YFP fluorescence quenching using ABT-126 (50 nM abt): −18%
- YFP fluorescence quenching using CNL001 (100 nM CNL001, first column): 73.635%
- YFP fluorescence quenching using CNL001 (100 nM CNL001, second column): 76.092%
- YFP fluorescence quenching using CNL002 (100 nM CNL002): −14.53%
- YFP fluorescence quenching using ABT-126 (100 nM abt): −16.39%
- YFP fluorescence quenching using AZD-0328 (100 nM azd0328): 11.33%
- YFP fluorescence quenching using TC-5619/Bradanicline (100 nM brd): −1.05%
- YFP fluorescence quenching using ABT-126 (300 nM abt): −15.05%
- YFP fluorescence quenching using AZD-0328 (300 nM azd0328): 44.15%
- YFP fluorescence quenching using TC-5619/Bradanicline (300 nM brd): 10.53%
- YFP fluorescence quenching using Facinicline (300 nM fac): 46.92
- YFP fluorescence quenching using Varenicline (300 nM var, first column): 4.327
- YFP fluorescence quenching using Varenicline (300 nM var, second column): 3.275
- YFP fluorescence quenching using Varenicline (500 nM var, first column): 1.835
- YFP fluorescence quenching using Varenicline (500 nM var, second column): 4.863
- YFP fluorescence quenching using CNL001 (1 uM CNL001, first column): 80.633%
- YFP fluorescence quenching using CNL001 (1 uM CNL001, second column): 79.637%
- YFP fluorescence quenching using CNL002 (1 uM CNL002): 6.45%
- YFP fluorescence quenching using ABT-126 (1 uM abt): −5.56%
- YFP fluorescence quenching using TC-5619/Bradanicline (1 uM brd): 34.72%
- YFP fluorescence quenching using TC-6987 (1 uM tc6987): −0.14
- YFP fluorescence quenching using Varenicline (1 uM var, first column): 9.471
- YFP fluorescence quenching using Varenicline (1 uM var, second column): 7.505
- YFP fluorescence quenching using TC-6987 (3 uM tc6987): −8.32
- YFP fluorescence quenching using TC-6987 (5 uM tc6987): −2.13
- YFP fluorescence quenching using Facinicline (10 uM fac): 79.06
- YFP fluorescence quenching using TC-6987 (10 uM tc6987): 0.13
- YFP fluorescence quenching using CNL002 (30 uM CNL002): 57.43%
- YFP fluorescence quenching using AZD-0328 (30 uM azd0328): 80.96%
- YFP fluorescence quenching using Facinicline (30 uM fac): 81.06
- YFP fluorescence quenching using TC-6987 (30 uM tc6987): −6.86
- YFP fluorescence quenching using TC-6987 (50 uM tc6987): −9.5
- YFP fluorescence quenching using TC-6987 (100 uM tc6987): −10.98
- YFP fluorescence quenching using TC-6987 (300 uM tc6987): −12.16
- YFP fluorescence quenching using TC-6987 (500 uM tc6987): −2.41
- percent quench of YFP fluorescence, 30 nM TC-6683: −13.84%
- percent quench of YFP fluorescence, 300 nM TC-6683: −20.66%
- percent quench of YFP fluorescence, 3 uM TC-6683: −17.86%
- percent quench of YFP fluorescence, 30 uM TC-6683: −18.91%
- percent quench of YFP fluorescence, 100 uM TC-6683: −16.88%
- percent quench of YFP fluorescence, 10 uM ach: −9.13%
- percent quench of YFP fluorescence, 100 uM ach: −9.29%
- percent quench of YFP fluorescence, 1 mM ach: 0.57%
- percent quench of YFP fluorescence, 3 mM ach: 35.37%

B2: CODA339: engineered chimeric LGIC receptor, L131D in SEQ ID NO: 33 (protein)
chain: B1 chain with T131D
modifications: synthetic sequence of chimeric LGIC
- YFP fluorescence quenching using CNL001 (1 nM CNL001, first column): 73.711%
- YFP fluorescence quenching using CNL001 (1 nM CNL001, second column): 76.44%
- YFP fluorescence quenching using TC-5619/Bradanicline (1 nM brd): 4.12%
- YFP fluorescence quenching using TC-5619/Bradanicline (3 nM brd): 19.15%
- YFP fluorescence quenching using Varenicline (3 nM var, first column): −0.902
- YFP fluorescence quenching using Varenicline (3 nM var, second column): −7.62
- YFP fluorescence quenching using CNL001 (10 nM CNL001, first column): 77.049%
- YFP fluorescence quenching using CNL001 (10 nM CNL001, second column): 77.76%
- YFP fluorescence quenching using TC-5619/Bradanicline (10 nM brd): 68.98%
- YFP fluorescence quenching using TC-5619/Bradanicline (30 nM brd): 77.29%
- YFP fluorescence quenching using Facinicline (30 nM fac): 12.67
- YFP fluorescence quenching using Varenicline (30 nM var, first column): −6.009
- YFP fluorescence quenching using Varenicline (30 nM var, second column): −3.447
- YFP fluorescence quenching using CNL001 (50 nM CNL001, first column): 77.882%
- YFP fluorescence quenching using CNL001 (50 nM CNL001, second column): 78.708%
- YFP fluorescence quenching using ABT-126 (50 nM abt): −16.65%
- YFP fluorescence quenching using CNL001 (100 nM CNL001, first column): 79.567%
- YFP fluorescence quenching using CNL001 (100 nM CNL001, second column): 79.273%
- YFP fluorescence quenching using CNL002 (100 nM CNL002): 12.83%
- YFP fluorescence quenching using ABT-126 (100 nM abt): −12.3%
- YFP fluorescence quenching using AZD-0328 (100 nM azd0328): 62.87%
- YFP fluorescence quenching using TC-5619/Bradanicline (100 nM brd): 81.41%
- YFP fluorescence quenching using ABT-126 (300 nM abt): 18.5%
- YFP fluorescence quenching using AZD-0328 (300 nM azd0328): 77.03%
- YFP fluorescence quenching using TC-5619/Bradanicline (300 nM brd): 75.79%
- YFP fluorescence quenching using Facinicline (300 nM fac): 80.4
- YFP fluorescence quenching using Varenicline (300 nM var, first column): 49.328
- YFP fluorescence quenching using Varenicline (300 nM var, second column): 47.685
- YFP fluorescence quenching using Varenicline (500 nM var, first column): 66.7
- YFP fluorescence quenching using Varenicline (500 nM var, second column): 64.798
- YFP fluorescence quenching using CNL001 (1 uM CNL001, first column): 79.992%
- YFP fluorescence quenching using CNL001 (1 uM CNL001, second column): 79.927%
- YFP fluorescence quenching using CNL002 (1 uM CNL002): 77.73%
- YFP fluorescence quenching using ABT-126 (1 uM abt): 59.09%
- YFP fluorescence quenching using TC-5619/Bradanicline (1 uM brd): 82.26%
- YFP fluorescence quenching using TC-6987 (1 uM tc6987): 50
- YFP fluorescence quenching using Varenicline (1 uM var, first column): 70.85
- YFP fluorescence quenching using Varenicline (1 uM var, second column): 69.038
- YFP fluorescence quenching using TC-6987 (3 uM tc6987): 80.39
- YFP fluorescence quenching using TC-6987 (5 uM tc6987): 79.93
- YFP fluorescence quenching using Facinicline (10 uM fac): 82.18
- YFP fluorescence quenching using TC-6987 (10 uM tc6987): 80.99
- YFP fluorescence quenching using CNL002 (30 uM CNL002): 80.58%
- YFP fluorescence quenching using AZD-0328 (30 uM azd0328): 78.63%
- YFP fluorescence quenching using Facinicline (30 uM fac): 82.14
- YFP fluorescence quenching using TC-6987 (30 uM tc6987): 83.11
- YFP fluorescence quenching using TC-6987 (50 uM tc6987): 83.18
- YFP fluorescence quenching using TC-6987 (100 uM tc6987): 82.16
- YFP fluorescence quenching using TC-6987 (300 uM tc6987): 64.58
- YFP fluorescence quenching using TC-6987 (500 uM tc6987): 76.77
- percent quench of YFP fluorescence, 30 nM TC-6683: −18.32%
- percent quench of YFP fluorescence, 300 nM TC-6683: −17.25%
- percent quench of YFP fluorescence, 3 uM TC-6683: −10%
- percent quench of YFP fluorescence, 30 uM TC-6683: −8.51%
- percent quench of YFP fluorescence, 100 uM TC-6683: −9.77%
- percent quench of YFP fluorescence, 10 uM ach: 4.56%
- percent quench of YFP fluorescence, 100 uM ach: 10.19%
- percent quench of YFP fluorescence, 1 mM ach: 77.34%
- percent quench of YFP fluorescence, 3 mM ach: 77.79%
